The results in this text go back to US20190270826A1 (Janssen / Centocor, published 2019).

In test [1] the target is T1, mouse IL1RAP ECD displayed on HEK-293F cells (pDisplay) (mouse, UniProt Q61730 21-367).
T1 sequence: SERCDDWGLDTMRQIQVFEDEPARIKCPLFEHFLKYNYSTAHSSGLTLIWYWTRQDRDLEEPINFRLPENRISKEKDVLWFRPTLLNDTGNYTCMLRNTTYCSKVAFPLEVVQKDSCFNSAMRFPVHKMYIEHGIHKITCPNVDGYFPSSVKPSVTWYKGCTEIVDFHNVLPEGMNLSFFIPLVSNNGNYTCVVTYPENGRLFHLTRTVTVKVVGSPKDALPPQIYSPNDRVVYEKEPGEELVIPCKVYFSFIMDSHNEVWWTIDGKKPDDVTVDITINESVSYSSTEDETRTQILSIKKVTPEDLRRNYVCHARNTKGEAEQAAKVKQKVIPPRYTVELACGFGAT
As to the kind of experiment: Murine Binder, summary.

In test [2] the target is T2, recombinant human IL1RAP ECD (human, UniProt Q9NPH3 21-367).
T2 construct: His-tagged; also called hIL1RAP-ECD; rhuIL1RAP
T2 sequence: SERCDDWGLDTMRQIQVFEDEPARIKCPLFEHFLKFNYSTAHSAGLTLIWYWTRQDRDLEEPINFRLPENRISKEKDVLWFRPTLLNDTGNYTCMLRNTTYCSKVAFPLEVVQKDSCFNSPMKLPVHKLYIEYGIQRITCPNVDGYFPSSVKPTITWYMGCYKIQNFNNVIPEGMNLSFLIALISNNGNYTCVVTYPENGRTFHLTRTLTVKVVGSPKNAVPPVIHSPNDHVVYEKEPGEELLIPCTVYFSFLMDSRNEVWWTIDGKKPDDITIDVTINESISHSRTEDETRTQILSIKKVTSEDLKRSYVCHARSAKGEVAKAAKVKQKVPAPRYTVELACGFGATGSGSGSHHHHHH
Description: SPR; human KD over cyno KD.

Test [3] deals with T3, recombinant cyno IL1RAP ECD (cynomolgus monkey, UniProt P59822 21-367 (rhesus entry)).
T3 construct: also called rcynoIL1RAP
T3 sequence: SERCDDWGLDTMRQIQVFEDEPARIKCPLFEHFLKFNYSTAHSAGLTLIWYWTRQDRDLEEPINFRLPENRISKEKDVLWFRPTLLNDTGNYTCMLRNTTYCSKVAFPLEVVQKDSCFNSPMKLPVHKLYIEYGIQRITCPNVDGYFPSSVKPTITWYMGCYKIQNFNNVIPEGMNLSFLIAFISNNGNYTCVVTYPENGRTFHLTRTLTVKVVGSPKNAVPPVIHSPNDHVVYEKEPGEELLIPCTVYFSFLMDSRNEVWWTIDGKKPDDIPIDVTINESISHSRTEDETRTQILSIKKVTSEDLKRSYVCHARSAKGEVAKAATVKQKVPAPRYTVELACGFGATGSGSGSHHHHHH
As to the kind of experiment: SPR. On the technique in general: Surface plasmon resonance follows binding to a sensor surface in real time, without labels.

The target in test [4] is T2, recombinant human IL1RAP ECD. Description: SPR.
Test [5] deals with T3, recombinant cyno IL1RAP ECD. Description: SPR. The source holds these as a separate data set.
Test [6] deals with T4, human IL1RAP on cells (endogenous) (human, UniProt Q9NPH3 21-570).
T4 sequence (looked up): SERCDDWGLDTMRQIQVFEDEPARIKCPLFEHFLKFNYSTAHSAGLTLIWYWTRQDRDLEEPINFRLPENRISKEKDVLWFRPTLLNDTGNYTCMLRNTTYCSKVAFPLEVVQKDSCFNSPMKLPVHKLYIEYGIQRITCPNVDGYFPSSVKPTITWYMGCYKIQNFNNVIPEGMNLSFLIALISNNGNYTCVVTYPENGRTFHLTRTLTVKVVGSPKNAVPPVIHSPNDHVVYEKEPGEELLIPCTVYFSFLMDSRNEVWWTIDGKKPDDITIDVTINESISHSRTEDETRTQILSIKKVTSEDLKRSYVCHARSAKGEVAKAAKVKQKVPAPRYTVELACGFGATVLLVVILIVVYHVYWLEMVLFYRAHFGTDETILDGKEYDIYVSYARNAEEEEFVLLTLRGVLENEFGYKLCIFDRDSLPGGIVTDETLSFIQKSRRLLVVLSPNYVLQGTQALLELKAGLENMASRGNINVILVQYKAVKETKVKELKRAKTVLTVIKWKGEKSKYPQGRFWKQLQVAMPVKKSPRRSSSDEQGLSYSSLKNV
Description: cell-based or functional assay.

Test [7] addresses T2, recombinant human IL1RAP ECD. Description: SPR. The source holds these as a separate data set.
Test [8] has the same target. Description: SPR, summary.
For test [9], the target named is T3, recombinant cyno IL1RAP ECD. As to the kind of experiment: SPR, summary.

B1: IC3B2 (bispecific antibody, human IgG4 S228P, kappa, lambda, F234A L235A)
heavy 1: EVQLVESGGGLVQPGGSLKLSCAASGFTFNTYAMNWVRQASGKGLEWVGRIRSKYNAYATYYAASVKGRFTISRDDSKNTAYLQMNSLKTEDTAVYYCTRHGNFGNSYVSWFAYWGQGTLVTVSSASTKGPSVFPLAPCSRSTSESTAALGCLVKDYFPEPVTVSWNSGALTSGVHTFPAVLQSSGLYSLSSVVTVPSSSLGTKTYTCNVDHKPSNTKVDKRVESKYGPPCPPCPAPEAAGGPSVFLFPPKPKDTLMISRTPEVTCVVVDVSQEDPEVQFNWYVDGVEVHNAKTKPREEQFNSTYRVVSVLTVLHQDWLNGKEYKCKVSNKGLPSSIEKTISKAKGQPREPQVYTLPPSQEEMTKNQVSLTCLVKGFYPSDIAVEWESNGQPENNYKTTPPVLDSDGSFLLYSKLTVDKSRWQEGNVFSCSVMHEALHNHYTQKSLSLSLGK
light 1: QAVVTQEPSLTVSPGGTVTLTCRSSTGAVTTSNYANWVQQKPGQAPRGLIGGTNKRAPGTPARFSGSLLGGKAALTLSGAQPEDEAEYYCALWYSNLWVFGGGTKLTVLGQPKAAPSVTLFPPSSEELQANKATLVCLISDFYPGAVTVAWKADSSPVKAGVETTTPSKQSNNKYAASSYLSLTPEQWKSHRSYSCQVTHEGSTVEKTVAPTECS
heavy 2: not shown
light 2: not shown
notes: IgG4-PAA, Fab arm exchange; also called IAPB38 x CD3B220
A word on the Kd: it is a measure of binding affinity in units of concentration. The term koff denotes the rate constant with which the complex falls apart. As a reminder, the kon is the second-order rate constant of association. In the case of B1, the binding result in test [1] is recorded as “binds”. The “Hu/Cyno KD Ratio” value in test [2] was 0.4. Moreover, the Kd in test [3] worked out at 16.9 nM; in test [4], 7.36 nM; in test [5], 16.9 nM; in test [7], 7.36 nM; in [8], 7.36 nM; in [9] it was 16.9 nM. Further, the koff in [3] stood at 0.00223 s⁻¹; in test [7] it was 0.000827 s⁻¹. Besides, the figures for the kon in test [3] and in test [7] were 132000 M⁻¹ s⁻¹ and 112000 M⁻¹ s⁻¹, respectively. Also, the “EC50, T-cell mediated cytotoxicity” value in test [6] amounted to 0.077 nM.

B2: IC3B10 (bispecific antibody, human IgG4 S228P, kappa, lambda, F234A L235A)
heavy 1: EVQLVESGGGLVQPGGSLKLSCAASGFTFNTYAMNWVRQASGKGLEWVGRIRSKYNAYATYYAASVKGRFTISRDDSKNTAYLQMNSLKTEDTAVYYCTRHGNFGNSYVSWFAYWGQGTLVTVSSASTKGPSVFPLAPCSRSTSESTAALGCLVKDYFPEPVTVSWNSGALTSGVHTFPAVLQSSGLYSLSSVVTVPSSSLGTKTYTCNVDHKPSNTKVDKRVESKYGPPCPPCPAPEAAGGPSVFLFPPKPKDTLMISRTPEVTCVVVDVSQEDPEVQFNWYVDGVEVHNAKTKPREEQFNSTYRVVSVLTVLHQDWLNGKEYKCKVSNKGLPSSIEKTISKAKGQPREPQVYTLPPSQEEMTKNQVSLTCLVKGFYPSDIAVEWESNGQPENNYKTTPPVLDSDGSFLLYSKLTVDKSRWQEGNVFSCSVMHEALHNHYTQKSLSLSLGK
light 1: QAVVTQEPSLTVSPGGTVTLTCRSSTGAVTTSNYANWVQQKPGQAPRGLIGGTNKRAPGTPARFSGSLLGGKAALTLSGAQPEDEAEYYCALWYSNLWVFGGGTKLTVLGQPKAAPSVTLFPPSSEELQANKATLVCLISDFYPGAVTVAWKADSSPVKAGVETTTPSKQSNNKYAASSYLSLTPEQWKSHRSYSCQVTHEGSTVEKTVAPTECS
heavy 2: not shown
light 2: not shown
notes: IgG4-PAA, Fab arm exchange
Take B2: the binding result in test [1] is “binds”. Further, the Kd in test [4], in test [7] and in test [8] was 4.77 nM throughout. Further, the “EC50, T-cell mediated cytotoxicity” value in [6] turned out to be 0.124 nM.

B3: IC3B7 (bispecific antibody, human IgG4 S228P, kappa, lambda, F234A L235A)
heavy 1: EVQLVESGGGLVQPGGSLKLSCAASGFTFNTYAMNWVRQASGKGLEWVGRIRSKYNAYATYYAASVKGRFTISRDDSKNTAYLQMNSLKTEDTAVYYCTRHGNFGNSYVSWFAYWGQGTLVTVSSASTKGPSVFPLAPCSRSTSESTAALGCLVKDYFPEPVTVSWNSGALTSGVHTFPAVLQSSGLYSLSSVVTVPSSSLGTKTYTCNVDHKPSNTKVDKRVESKYGPPCPPCPAPEAAGGPSVFLFPPKPKDTLMISRTPEVTCVVVDVSQEDPEVQFNWYVDGVEVHNAKTKPREEQFNSTYRVVSVLTVLHQDWLNGKEYKCKVSNKGLPSSIEKTISKAKGQPREPQVYTLPPSQEEMTKNQVSLTCLVKGFYPSDIAVEWESNGQPENNYKTTPPVLDSDGSFLLYSKLTVDKSRWQEGNVFSCSVMHEALHNHYTQKSLSLSLGK
light 1: QAVVTQEPSLTVSPGGTVTLTCRSSTGAVTTSNYANWVQQKPGQAPRGLIGGTNKRAPGTPARFSGSLLGGKAALTLSGAQPEDEAEYYCALWYSNLWVFGGGTKLTVLGQPKAAPSVTLFPPSSEELQANKATLVCLISDFYPGAVTVAWKADSSPVKAGVETTTPSKQSNNKYAASSYLSLTPEQWKSHRSYSCQVTHEGSTVEKTVAPTECS
heavy 2: not shown
light 2: not shown
notes: IgG4-PAA, Fab arm exchange; also called IAPB17 x CD3B220
Consider B3, for which the binding result in [1] is reported as “binds”. For the same molecule, the “Hu/Cyno KD Ratio” value in test [2] worked out at 1.3. Also, the Kd in [3] is 4.74 nM; in test [4], 6.1 nM; in test [5], 4.74 nM; in test [7], 6.1 nM; in test [8], 6.1 nM; in test [9], 4.74 nM. For the same molecule, the koff in test [3] came out at 0.00583 s⁻¹; in test [7] it was 0.00659 s⁻¹. Moreover, the figures for the on-rate constant (kon) in [3] and in [7] were 1.23e+06 M⁻¹ s⁻¹ and 1.08e+06 M⁻¹ s⁻¹, respectively. Besides, the “EC50, T-cell mediated cytotoxicity” value in [6] amounted to 3.4 nM.

B4: IC3B11 (bispecific antibody, human IgG4 S228P, kappa, lambda, F234A L235A)
heavy 1: EVQLVESGGGLVQPGGSLKLSCAASGFTFNTYAMNWVRQASGKGLEWVGRIRSKYNAYATYYAASVKGRFTISRDDSKNTAYLQMNSLKTEDTAVYYCTRHGNFGNSYVSWFAYWGQGTLVTVSSASTKGPSVFPLAPCSRSTSESTAALGCLVKDYFPEPVTVSWNSGALTSGVHTFPAVLQSSGLYSLSSVVTVPSSSLGTKTYTCNVDHKPSNTKVDKRVESKYGPPCPPCPAPEAAGGPSVFLFPPKPKDTLMISRTPEVTCVVVDVSQEDPEVQFNWYVDGVEVHNAKTKPREEQFNSTYRVVSVLTVLHQDWLNGKEYKCKVSNKGLPSSIEKTISKAKGQPREPQVYTLPPSQEEMTKNQVSLTCLVKGFYPSDIAVEWESNGQPENNYKTTPPVLDSDGSFLLYSKLTVDKSRWQEGNVFSCSVMHEALHNHYTQKSLSLSLGK
light 1: QAVVTQEPSLTVSPGGTVTLTCRSSTGAVTTSNYANWVQQKPGQAPRGLIGGTNKRAPGTPARFSGSLLGGKAALTLSGAQPEDEAEYYCALWYSNLWVFGGGTKLTVLGQPKAAPSVTLFPPSSEELQANKATLVCLISDFYPGAVTVAWKADSSPVKAGVETTTPSKQSNNKYAASSYLSLTPEQWKSHRSYSCQVTHEGSTVEKTVAPTECS
heavy 2: not shown
light 2: not shown
notes: IgG4-PAA, Fab arm exchange; also called IAPB9 x CD3B220
Turning to B4, the binding result in test [1] is on record as “binds”. The “Hu/Cyno KD Ratio” value in [2] worked out at 0.9. The Kd in [3] was 5.27 nM; in [4], 4.56 nM; in [5], 5.27 nM; in test [7] it was 4.56 nM; in test [8] it was 4.56 nM; in test [9], 5.27 nM. The results for the koff in [3] and in [7] were 0.00409 s⁻¹ and 0.00354 s⁻¹, respectively. The kon in [3] and in test [7] was 776000 M⁻¹ s⁻¹ each time. Besides, the “EC50, T-cell mediated cytotoxicity” value in [6] stood at 1.32 nM.
